Results: patent publication US20190202925A1 (OPI VI IP HOLDCO, published 2019)

What was measured:
[1] = molecular target: T1, monomeric human TNFR2 extracellular domain (human, UniProt P20333 23-257); test: BLI (Octet Red 96), Human TNFR2 Kd (1-1)
T1 construct: extracellular domain; Analyte in the Octet experiments; also called human TNFR2 ECD
T1 sequence (looked up): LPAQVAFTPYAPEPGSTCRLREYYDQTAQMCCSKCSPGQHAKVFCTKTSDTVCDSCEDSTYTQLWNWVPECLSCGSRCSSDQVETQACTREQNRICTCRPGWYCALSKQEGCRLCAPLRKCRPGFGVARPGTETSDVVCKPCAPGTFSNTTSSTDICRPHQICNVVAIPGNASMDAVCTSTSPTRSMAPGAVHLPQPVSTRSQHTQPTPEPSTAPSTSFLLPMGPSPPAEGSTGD

soluble human TNFR2 [2] = molecular target: T2, soluble human TNFR2 (human, UniProt P20333 23-257); test: competition ELISA (FIG. 1), plate-bound soluble human TNFR2, constant biotinylated TNFα as competitor
T2 construct: also called soluble TNFR2
T2 sequence (looked up): T1 sequence (looked up)
From the text: (§1) Soluble human TNFR2 was coated on Nunc-Immuno™ plates. […] IC₅₀ values are reported in nM.

[3] = molecular target: T1, monomeric human TNFR2 extracellular …; test: BLI (Octet Red 96), antibody captured on Fc biosensor, monomeric TNFR2 ECD in solution, 1:1 model
Procedure: Analysis of binding to the human and cynomolgus TNFR2 ECD was performed using an Octet Red 96 Instrument™ (ForteBio). […] The experiments were performed using five steps: (1) baseline acquisition (60 s); (2) antibody loading on to anti-human or anti-mouse Fc biosensors (120 s); (3) second baseline acquisition (60 s); (4) association of interacting monomeric human or cynomolgus TNFR2 ECD protein for kₒₙ measurement (120 s); and (5) dissociation of interacting monomeric human or cynomolgus TNFR2 ECD for koff measurement (240-3600 s).
The interacting monomeric human or cynomolgus ECD was used at 5-6 concentrations of a 3-fold concentration series. The data were analyzed using Octet Data Analysis Software 9.0™ (ForteBio) and fit to the 1:1 binding model. The equilibrium dissociation constants (Kd) were calculated by the ratio of […].

soluble human TNFR2 [4] = molecular target: T2, soluble human TNFR2; test: competition ELISA (FIG. 2), plate-bound soluble human TNFR2, constant biotinylated TNFα as competitor; unit from paragraph 202 (IC50 values are reported in nM)
From the text: as §1

- Kd [1]: 1.1 nM
- IC50 (soluble human TNFR2 [2]): 7.88 nM
- Kd [3]: 1.8 nM
- IC50 (soluble human TNFR2 [4]): 6.59 nM
B1: SBT-004 (antibody, V domains shown)
VH: EVQLQQSGPEVGRPGSSVKISCKASGYTFTDYIMHWVKQSPGQGLEWIGWVDPEYGSTDYAEKFKKKATLTADTSSNTAYIQLSSLTSEDTATYFCARDDGSYSPFDYWGQGVMVTVSS
VL: DIQMTQSPPSLSASLGDKVTITCQASQNINKYIAWYQQKPGKAPRLLIRYTSTLESGTPSRFSGSGSGRDYSFSISNVESEDIASYYCLQYVNLLTFGAGTKLEIK
notes: Parental rat antibody; also called rat SBT-004
